In US10227388B2, “Peptides and combination of peptides for use in immunotherapy against non-small cell lung cancer and other cancers” (immatics biotechnologies GmbH, priority 2015, dated 2019):

Target: HLA-A*02:01 (Homo sapiens, UniProt P04439, D140Y/D185E/D98H/E176V/E277Q/G131W/G231S/I119V/I121R/I166T/I218V/L300P/L318F/N151K/N90K/P208A/P217A/Q86G/Q94H/R138H/R169H/T345S)
Test: MHC binding assay (UV-ligand exchange, ELISA, peptide exchange yield)
Details: binding of HLA-class I restricted peptides to HLA-A*02:01
Summary of the method: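 Exchange yield was quantified as stabilized β2m-containing complex: monomers diluted 100-fold bound to streptavidin-coated wells, probed with HRP-conjugated anti-β2m, read at 450 nm after TMB. Complexes had been generated by UV cleavage of a photolabile ligand and replacement with the candidate peptide.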

Substance	Peptide exchange (MHC class I binding score, peptide exchange yield)
478 (YLLHEKLNL; listed as Homo sapiens) [compound 478]	″+++″ (≥50% = +++)
484 (SLIEKVTQL; listed as Homo sapiens) [compound 484]	″+++″ (≥50% = +++)
485 (NVPDSFNEV; listed as Homo sapiens) [compound 485]	″+++″ (≥50% = +++)
487 (LLINSVFHV; listed as Homo sapiens) [compound 487]	″+++″ (≥50% = +++)
488 (FLAEDPKVTL; listed as Homo sapiens) [compound 488]	″+++″ (≥50% = +++)
492 (SLFDGFADGLGV; listed as Homo sapiens) [compound 492]	″+++″ (≥50% = +++)
494 (ALQPEPIKV; listed as Homo sapiens) [compound 494]	″++″ (≥20% = ++)
500 (SLMEDQVLQL; listed as Homo sapiens) [compound 500]	″+++″ (≥50% = +++)
503 (SLNHFTHSV; listed as Homo sapiens) [compound 503]	″+++″ (≥50% = +++)
504 (GLSDGNPSL; listed as Homo sapiens) [compound 504]	″++″ (≥20% = ++)
509 (FLFDTKPLIV; listed as Homo sapiens) [compound 509]	″+++″ (≥50% = +++)
515 (LLQELVLFL; listed as Homo sapiens) [compound 515]	″+++″ (≥50% = +++)
516 (AVGPASILKEV; listed as Homo sapiens) [compound 516]	″++″ (≥20% = ++)
517 (LLMPIPEGLTL; listed as Homo sapiens) [compound 517]	″+++″ (≥50% = +++)
518 (KLNAEVACV; listed as Homo sapiens) [compound 518]	″+++″ (≥50% = +++)
519 (GLLHLTLLL; listed as Homo sapiens) [compound 519]	″+++″ (≥50% = +++)
524 (ALIENLTHQI; listed as Homo sapiens) [compound 524]	″++″ (≥20% = ++)
526 (RLAEVGQYEQV; listed as Homo sapiens) [compound 526]	″++″ (≥20% = ++)
527 (FLLEPGNLEV; listed as Homo sapiens) [compound 527]	″++++″ (≥75% = ++++)
529 (LLADELITV; listed as Homo sapiens) [compound 529]	″+++″ (≥50% = +++)
531 (YTLPIASSIRL; listed as Homo sapiens) [compound 531]	″+++″ (≥50% = +++)
537 (TLAPGEVLRSV; listed as Homo sapiens) [compound 537]	″+++″ (≥50% = +++)
538 (LLLAHIIAL; listed as Homo sapiens) [compound 538]	″++″ (≥20% = ++)
541 (SMLEPVPEL; listed as Homo sapiens) [compound 541]	″+++″ (≥50% = +++)
543 (GLLPTPITQQASL; listed as Homo sapiens) [compound 543]	″+++″ (≥50% = +++)
547 (TLDITPHTV; listed as Homo sapiens) [compound 547]	″+++″ (≥50% = +++)
548 (ALWENPESGEL; listed as Homo sapiens) [compound 548]	″++″ (≥20% = ++)
551 (KLYESLLPFA; listed as Homo sapiens) [compound 551]	″+++″ (≥50% = +++)

Other lines, results leading:

Peptide exchange (MHC class I binding score, peptide exchange yield)	Substance
″+++″ (≥50% = +++)	476 (ALMERTGYSMV; listed as Homo sapiens) [compound 476]
″+++″ (≥50% = +++)	477 (ALLPASGQIAL; listed as Homo sapiens) [compound 477]
″+++″ (≥50% = +++)	479 (SLFGNSGILENV; listed as Homo sapiens) [compound 479]
″+++″ (≥50% = +++)	480 (ALLEDSCHYL; listed as Homo sapiens) [compound 480]
″+++″ (≥50% = +++)	481 (GLIEDYEALL; listed as Homo sapiens) [compound 481]
″+++″ (≥50% = +++)	486 (AVMESIQGV; listed as Homo sapiens) [compound 486]
″+++″ (≥50% = +++)	490 (FLLQHVQEL; listed as Homo sapiens) [compound 490]
″++″ (≥20% = ++)	491 (GLNDRSDAV; listed as Homo sapiens) [compound 491]
″+++″ (≥50% = +++)	493 (GLLGEKTQDLIGV; listed as Homo sapiens) [compound 493]
″+++″ (≥50% = +++)	495 (FIFSEKPVFV; listed as Homo sapiens) [compound 495]
″+++″ (≥50% = +++)	496 (FLVEKQPPQV; listed as Homo sapiens) [compound 496]
″+++″ (≥50% = +++)	497 (GLLEKLTAI; listed as Homo sapiens) [compound 497]
″+++″ (≥50% = +++)	498 (KLWTGGLDNTV; listed as Homo sapiens) [compound 498]
″+++″ (≥50% = +++)	501 (LLDPNVKSIFV; listed as Homo sapiens) [compound 501]
″+++″ (≥50% = +++)	502 (RLLAQVPGL; listed as Homo sapiens) [compound 502]
″++″ (≥20% = ++)	505 (SLAPGDVVRQV; listed as Homo sapiens) [compound 505]
″+++″ (≥50% = +++)	506 (KLLGKVETA; listed as Homo sapiens) [compound 506]
″+++″ (≥50% = +++)	507 (KLIDDQDISISL; listed as Homo sapiens) [compound 507]
″+++″ (≥50% = +++)	508 (ILAQEQLVVGV; listed as Homo sapiens) [compound 508]

Peptide exchange (MHC class I binding score, peptide exchange yield)	Substance
″++″ (≥20% = ++)	510 (KLYSVVSQL; listed as Homo sapiens) [compound 510]
″+++″ (≥50% = +++)	512 (SLSEIVPCL; listed as Homo sapiens) [compound 512]
″++″ (≥20% = ++)	513 (SLWPSPEQL; listed as Homo sapiens) [compound 513]
″+++″ (≥50% = +++)	514 (ILVDWLVQV; listed as Homo sapiens) [compound 514]
″+″ (≥10% = +)	520 (LAVHPSGVAL; listed as Homo sapiens) [compound 520]
″+++″ (≥50% = +++)	521 (MLLTKLPTI; listed as Homo sapiens) [compound 521]
″++″ (≥20% = ++)	522 (TLWYRSPEV; listed as Homo sapiens) [compound 522]
″++″ (≥20% = ++)	523 (YQIPRTFTL; listed as Homo sapiens) [compound 523]
″+++″ (≥50% = +++)	525 (VLLEAGEGLVTI; listed as Homo sapiens) [compound 525]
″+++″ (≥50% = +++)	528 (SVAEGRALMSV; listed as Homo sapiens) [compound 528]
″+++″ (≥50% = +++)	530 (VMYADIGGMDI; listed as Homo sapiens) [compound 530]
″+++″ (≥50% = +++)	539 (ALFDAQAQV; listed as Homo sapiens) [compound 539]
″+++″ (≥50% = +++)	542 (RVWDISTVSSV; listed as Homo sapiens) [compound 542]
″+++″ (≥50% = +++)	544 (LLWDVPAPSL; listed as Homo sapiens) [compound 544]
″+++″ (≥50% = +++)	545 (LLADLLHNV; listed as Homo sapiens) [compound 545]
″+++″ (≥50% = +++)	546 (VMIAGKVAVV; listed as Homo sapiens) [compound 546]
″+++″ (≥50% = +++)	549 (AMLENASDIKL; listed as Homo sapiens) [compound 549]
″+++″ (≥50% = +++)	550 (FLYDEIEAEVNL; listed as Homo sapiens) [compound 550]
″++++″ (≥75% = ++++)	552 (GLLDLPFRVGV; listed as Homo sapiens) [compound 552]
